Measurements as given in patent publication US20070254831A1 (published 2007).
Read-outs that look alike come from different tables or passages of the source. Numbered stars: 1 amine (or outer) side, 2 acyl side, 3 side chain; on linkers, the order of the positions; unused ones are H or OH. Bridge positions count the residues as written; N and C are the ends. Square brackets hold non-standard residues; d marks the D form. Ends that are not written are not given here. X3 = 3(S)‑3‑amino‑2‑oxo‑1‑azepine acetic acid, O=C1[C@@H](N[*:1])CCCCN1CC(=O)[*:2]; 6,5‑bicyclic dipeptide mimic = not defined here; NMeL = CN[C@@H](CC(C)C)C(=O)O; Pen = CC(C)(S)[C@H](N)C(=O)O; NMeA = CN[C@@H](C)C(=O)O; Ava = NCCCCC(=O)O; Sar = CNCC(=O)O

Experiments:
soluble human FcRn [1] = target: T1, soluble human FcRn (human, UniProt P55899 24-297; P61769 21-119, biotinylated (Sulfo-NHS-LC-Biotin) in the ELISA; amine-coupled to CM5 chip in SPR); assay: ELISA, competitor human IgG
T1 construct: also called shFcRn; biotinylated shFcRn
Protocol: (§1) The wells were coated with 100 μl/well of 1 μg/ml biotinylated-shFcRn in Buffer A. The plate was sealed and incubated at 37° C. for 2 hours. Afterwards, the plate washed with 200 μl/well of Buffer B (Buffer B: 100 mM MES pH 6, 150 mM NaCl, 0.5% BSA IgG-free (Jackson ImmunoResearch, West Grove, Pa.), 0.05% Tween-20). […] To allow for mixing, the plate was rocked for 2 minutes, sealed and incubated at 37° C. for 2 hours. […] The plate was covered, incubated for 30 minutes at room temperature and washed 4 times with 200 μl/well of ice-cold buffer B. SureBlue TMB substrate solution (100 μl/well, KPL, Gaithersburg, Md.) was added and the plate was allowed to incubate at room temperature until color developed, which took 5 to 10 minutes. Once color developed, 100 μl/well of TMB stop solution (KPL, Gaithersburg, Md.) was added and the absorbance was measured at 450 nm. The data was plotted as absorbance vs. peptide concentration to derive the inhibitory concentration 50% (IC₅₀) values.

soluble human FcRn [2] = target: T1, soluble human FcRn; assay: SPR, pH 6
Protocol: (§2) The following steps were performed to cross-link soluble human or cynomolgus FcRn to the dextran surface of a CM5 sensor chip (Biacore AB, Uppsala, Sweden) by an amine coupling reaction involving 1-ethyl-(3-dimethylaminopropyl)-carbodiimide hydrochloride (EDC) (Biacore AB, Uppsala, Sweden) and N-hydroxysuccinimide (NHS) (Biacore AB, Uppsala, Sweden) as recommended by Biacore (BIAapplications Handbook, version AB, section 4.2, Biacore AB, Uppsala, Sweden). […] Residual sites on the FcRn flow cell were blocked with 1 M ethanolamine hydrochloride pH 8.5 (Biacore AB, Uppsala, Sweden). A control flow cell was blocked with ethanolamine for reference subtraction. For analysis of the monomeric peptides, FcRn was coated to a final density of 4000-5000 response units (RU). For analysis of the peptide dimers, FcRn was coated to a density of 2000-2500 RU. All SPR measurements were performed using a BIACORE 3000 Instrument (Biacore AB Uppsala, Sweden). For measurements done at either pH 6 or pH 7.4, experiments were performed in 50 mM phosphate, 100 mM sodium chloride, 0.01% surfactant P20 (Biacore AB, Uppsala, Sweden).
(§3) Ten, 2-fold dilutions of the peptide were injected over the FcRn-CM5 chip at a rate of 20 μl/min for 2 min. The peptide was dissociated from the chip for 2.5 minutes with buffer. Any remaining peptide was removed from the chip with a 30 second injection of HBS-P buffer (Biacore AB, Uppsala, Sweden) at a rate of 30 μl/min. Sensorgrams were generated and analyzed using BiaEval software version 3.1 (Biacore AB, Uppsala, Sweden). The equilibrium RU observed for each injection was plotted against concentration. The equilibrium KD values were derived by analysis of the plots using the steady state affinity model included in the BiaEval software.

soluble human FcRn [3] = target: T1, soluble human FcRn; assay: SPR, pH 7.4
Protocol: as §2, §3

soluble human FcRn [4] = target: T1, soluble human FcRn; assay: SPR, pH 6; remark: listed apart in the source
Protocol: as §2, §3

soluble human FcRn [5] = target: T1, soluble human FcRn; assay: ELISA, competitor human IgG; remark: listed apart in the source
Protocol: as §1

soluble human FcRn [6] = target: T1, soluble human FcRn; assay: ELISA, competitor human IgG; remark: listed apart in the source
Protocol: as §1

soluble human FcRn [7] = target: T1, soluble human FcRn; assay: SPR, pH 6; remark: listed apart in the source
Protocol: as §2, §3

soluble human FcRn [8] = target: T1, soluble human FcRn; assay: ELISA, competitor human IgG; remark: listed apart in the source
Protocol: as §1

soluble human FcRn [9] = target: T1, soluble human FcRn; assay: ELISA, competitor human IgG; remark: listed apart in the source
Protocol: as §1

soluble human FcRn [10] = target: T1, soluble human FcRn; assay: SPR, pH 7.4; remark: listed apart in the source
Protocol: as §2, §3

soluble human FcRn [11] = target: T1, soluble human FcRn; assay: ELISA, competitor human IgG; remark: listed apart in the source
Protocol: as §1

soluble human FcRn [12] = target: T1, soluble human FcRn; assay: SPR, pH 6; remark: listed apart in the source
Protocol: as §2, §3

soluble human FcRn [13] = target: T1, soluble human FcRn; assay: SPR, pH 6; remark: listed apart in the source
Protocol: as §2, §3

soluble human FcRn [14] = target: T1, soluble human FcRn; assay: ELISA, competitor human IgG; remark: listed apart in the source
Protocol: as §1

soluble human FcRn [15] = target: T1, soluble human FcRn; assay: SPR, pH 7.4; remark: listed apart in the source
Protocol: as §2, §3

soluble human FcRn [16] = target: T1, soluble human FcRn; assay: ELISA, competitor human IgG; remark: listed apart in the source
Protocol: as §1

soluble human FcRn [17] = target: T1, soluble human FcRn; assay: SPR, pH 6; remark: listed apart in the source
soluble human FcRn [18] = target: T1, soluble human FcRn; assay: SPR, pH 7.4; remark: listed apart in the source
Protocol: as §2, §3

soluble human FcRn [19] = target: T1, soluble human FcRn; assay: ELISA, competitor human IgG; remark: listed apart in the source
Protocol: as §1

soluble human FcRn [20] = target: T1, soluble human FcRn; assay: SPR, pH 6; remark: listed apart in the source
Protocol: as §2, §3

T1 sequence (P55899 24-297 limits assumed, chain 1 of 2): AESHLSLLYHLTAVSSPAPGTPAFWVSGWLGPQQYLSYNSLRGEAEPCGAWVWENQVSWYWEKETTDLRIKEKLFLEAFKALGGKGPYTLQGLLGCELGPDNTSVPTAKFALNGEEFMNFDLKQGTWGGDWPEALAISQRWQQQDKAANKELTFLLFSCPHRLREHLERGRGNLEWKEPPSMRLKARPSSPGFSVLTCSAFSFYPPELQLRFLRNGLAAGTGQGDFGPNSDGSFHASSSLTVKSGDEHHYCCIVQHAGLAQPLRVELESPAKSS
T1 sequence (P61769 21-119 limits assumed, chain 2 of 2): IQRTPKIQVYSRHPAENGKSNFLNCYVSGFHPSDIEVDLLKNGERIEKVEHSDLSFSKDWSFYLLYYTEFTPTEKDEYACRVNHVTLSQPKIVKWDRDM

## AGPSYCIEGHIDGIYCFNAGTGGGK-NH2 (disulfide 6-16 (inferred)) [SEQ ID NO:9]
Soluble human FcRn [1]
  IC50: 49 µM
Soluble human FcRn [2]
  Kd: 8.8 µM
Soluble human FcRn [3]
  Kd: 76 µM

## QRFXTGHFGGLYPENGP (Dab at 4; side-chain lactam bridge Dab 4-Glu 14; C-terminal amide) [Peptide No. 72]
Soluble human FcRn [4]
  Kd: 4.8 µM
Soluble human FcRn [5]
  IC50: 81 µM

B1: Peptide No. 213 (peptide)
peptide: QRF[Pen][NMeA]GHFGGLYPCNGP-NH2
modifications: disulfide 4-14; N-terminus assumed
SMILES: CC(C)C[C@@H]1NC(=O)CNC(=O)CNC(=O)[C@H](Cc2ccccc2)NC(=O)[C@H](Cc2c[nH]cn2)NC(=O)CNC(=O)[C@H](C)N(C)C(=O)[C@@H](NC(=O)[C@H](Cc2ccccc2)NC(=O)[C@H](CCCNC(=N)N)NC(=O)[C@@H](N)CCC(N)=O)C(C)(C)SSC[C@@H](C(=O)N[C@@H](CC(N)=O)C(=O)NCC(=O)N2CCC[C@H]2C(N)=O)NC(=O)[C@@H]2CCCN2C(=O)[C@H](Cc2ccc(O)cc2)NC1=O
Soluble human FcRn [6]
  IC50: 5.5 µM
Soluble human FcRn [7]
  Kd: 1000 nM

B2: Peptide No. 35 (peptide)
peptide: QRFCTGHF[Ava]LYPCNGP-NH2
modifications: disulfide 4-13; N-terminus assumed
SMILES: CC(C)C[C@@H]1NC(=O)CCCCNC(=O)[C@H](Cc2ccccc2)NC(=O)[C@H](Cc2c[nH]cn2)NC(=O)CNC(=O)[C@H]([C@@H](C)O)NC(=O)[C@@H](NC(=O)[C@H](Cc2ccccc2)NC(=O)[C@H](CCCNC(=N)N)NC(=O)[C@@H](N)CCC(N)=O)CSSC[C@@H](C(=O)N[C@@H](CC(N)=O)C(=O)NCC(=O)N2CCC[C@H]2C(N)=O)NC(=O)[C@@H]2CCCN2C(=O)[C@H](Cc2ccc(O)cc2)NC1=O
Soluble human FcRn [8]
  IC50: > 125 µM

## AGGGCVTGHFGGIYCNTQGTGGGK-NH2 (disulfide 5-15 (inferred)) [SEQ ID NO:7]
Soluble human FcRn [2]
  Kd: 5.2 µM
Soluble human FcRn [3]
  Kd: 34.7 µM

B3: Peptide No. 105 (peptide)
peptide: QRFDTGHFG[dA]LYPKNGP-NH2
modifications: lactam 4-14; N-terminus assumed
SMILES: CC(C)C[C@@H]1NC(=O)[C@@H](C)NC(=O)CNC(=O)[C@H](Cc2ccccc2)NC(=O)[C@H](Cc2c[nH]cn2)NC(=O)CNC(=O)[C@H]([C@@H](C)O)NC(=O)[C@@H](NC(=O)[C@H](Cc2ccccc2)NC(=O)[C@H](CCCNC(=N)N)NC(=O)[C@@H](N)CCC(N)=O)CC(=O)NCCCC[C@@H](C(=O)N[C@@H](CC(N)=O)C(=O)NCC(=O)N2CCC[C@H]2C(N)=O)NC(=O)[C@@H]2CCCN2C(=O)[C@H](Cc2ccc(O)cc2)NC1=O
Soluble human FcRn [4]
  Kd: 2.1 µM

B4: Peptide No. 194 (peptide)
peptide: QRFXTGHFGXYPCNGP
modifications: Pen at 4; X at 10 = D,L-Friedinger's lactam (dipeptide mimetic for Gly-Leu); disulfide; C-terminal amide
Soluble human FcRn [9]
  IC50: 4.9 µM

B5: Peptide No. 177 (peptide)
peptide: QRFVTGHFG[dP]WYPANGP-NH2
modifications: N-terminus assumed
SMILES: CC(C)[C@H](NC(=O)[C@H](Cc1ccccc1)NC(=O)[C@H](CCCNC(=N)N)NC(=O)[C@@H](N)CCC(N)=O)C(=O)N[C@H](C(=O)NCC(=O)N[C@@H](Cc1c[nH]cn1)C(=O)N[C@@H](Cc1ccccc1)C(=O)NCC(=O)N1CCC[C@@H]1C(=O)N[C@@H](Cc1c[nH]c2ccccc12)C(=O)N[C@@H](Cc1ccc(O)cc1)C(=O)N1CCC[C@H]1C(=O)N[C@@H](C)C(=O)N[C@@H](CC(N)=O)C(=O)NCC(=O)N1CCC[C@H]1C(N)=O)[C@@H](C)O
Soluble human FcRn [10]
  Kd: 96 µM
Soluble human FcRn [11]
  IC50: 52 µM
Soluble human FcRn [12]
  Kd: 5.8 µM

B6: Peptide No. 208 (peptide)
peptide: RFVTGHF[X3]LYPA-NH2
modifications: N-terminus assumed
SMILES: CC(C)C[C@H](NC(=O)CN1CCCC[C@H](NC(=O)[C@H](Cc2ccccc2)NC(=O)[C@H](Cc2c[nH]cn2)NC(=O)CNC(=O)[C@@H](NC(=O)[C@@H](NC(=O)[C@H](Cc2ccccc2)NC(=O)[C@@H](N)CCCNC(=N)N)C(C)C)[C@@H](C)O)C1=O)C(=O)N[C@@H](Cc1ccc(O)cc1)C(=O)N1CCC[C@H]1C(=O)N[C@@H](C)C(N)=O
Soluble human FcRn [13]
  Kd: 2.3 µM
Soluble human FcRn [14]
  IC50: 23 µM

B7: Peptide No. 236 (peptide)
peptide: RFVTGHFG[Sar][NMeL]YPA-NH2
modifications: N-terminus assumed
SMILES: CC(C)C[C@@H](C(=O)N[C@@H](Cc1ccc(O)cc1)C(=O)N1CCC[C@H]1C(=O)N[C@@H](C)C(N)=O)N(C)C(=O)CN(C)C(=O)CNC(=O)[C@H](Cc1ccccc1)NC(=O)[C@H](Cc1c[nH]cn1)NC(=O)CNC(=O)[C@@H](NC(=O)[C@@H](NC(=O)[C@H](Cc1ccccc1)NC(=O)[C@@H](N)CCCNC(=N)N)C(C)C)[C@@H](C)O
Soluble human FcRn [10]
  Kd: 9 µM
Soluble human FcRn [11]
  IC50: 37 µM
Soluble human FcRn [14]
  IC50: 37 µM

## RF[Pen]TGHFG[Sar]YPCNGP-NH2 (disulfide 3-12 (inferred), printed without the Leu after Sar) [Peptide No. 147]
Soluble human FcRn [15]
  Kd: 350 nM
Soluble human FcRn [16]
  IC50: 1000 nM
Soluble human FcRn [17]
  Kd: 58 nM

## RFXTGHFGGLYPCNGP (Pen at 3; NMeLeu at 10; disulfide; C-terminal amide) [Peptide No. 146]
Soluble human FcRn [15]
  Kd: 280 nM
Soluble human FcRn [16]
  IC50: 2100 nM
Soluble human FcRn [17]
  Kd: 59 nM

## AGKIICSPGHFGGMYCQGKGTGGGK-NH2 (disulfide 6-16 (inferred)) [SEQ ID NO:8]
Soluble human FcRn [1]
  IC50: 64 µM
Soluble human FcRn [2]
  Kd: 22 µM

## AGQRFCTGHFGGLYPCNGPGTGGGK-NH2 (disulfide 6-16 (inferred)) [SEQ ID NO:6]
Soluble human FcRn [18]
  Kd: 45 µM
Soluble human FcRn [1]
  IC50: 36 µM
Soluble human FcRn [19]
  IC50: 36 µM
Soluble human FcRn [2]
  Kd: 5.7 µM
Soluble human FcRn [20]
  Kd: 5.7 µM
Soluble human FcRn [3]
  Kd: 45 µM

## RFVTGHF[6,5‑bicyclic dipeptide mimic]LYPA-NH2 (reading uncertain) [Peptide No. 207]
Soluble human FcRn [13]
  Kd: 20 µM
Soluble human FcRn [14]
  IC50: > 125 µM

B8: Peptide No. 216 (peptide)
peptide: QRFXTGHFGXYPCNGP
modifications: Pen at 4; X at 10 = L,L-Friedinger's lactam (dipeptide mimetic for Gly-Leu); disulfide; C-terminal amide
Soluble human FcRn [9]
  IC50: 19 µM
